Assay results published in patent publication US20200190204A1.

Molecular target: hBAFF-R-GFP fusion protein on mouse fibroblast L cells (clone D2C) (human) (UniProt Q96RJ3)
Test: flow cytometry on BAFF-R-expressing D2C L cells, 0.5 µg recombinant BAFF/10^6 cells, anti-BAFF-PE; unstained cells 0.0217; in the signal plot the 0 ng trace peaks between 10^2 and 10^3, the unstained one at about 10^2

gate number, percent of cells above the BAFF-PE line (no % sign printed): 59.6%
Substance: recombinant BAFF ligand (from UniProt Q9Y275 134-285)
